Measured values reported in paper PMC12215075, “Cryo-EM structures of the E. coli Ton and Tol motor complexes” (Nature Communications, 2025).

B1: E. coli ExbB (natural protein)
chain: MGNNLMQTDLSVWGMYQHADIVVKCVMIGLILASVVTWAIFFSKSVEFFNQKRRLKREQQLLAEARSLNQANDIAADFGSKSLSLHLLNEAQNELELSEGSDDNEGIKERTSFRLERRVAAVGRQMGRGNGYLATIGAISPFVGLFGTVWGIMNSFIGIAQTQTTNLAVVAPGIAEALLATAIGLVAAIPAVVIYNVFARQIGGFKAMLGDVAAQVLLLQSRDLDLEASAAAHPVRVAQKLRAG
notes: ExbB, E. coli; also called EcExbB; ExbBA
B2: E. coli TolQ (natural protein, UniProt P0ABU9 1-230, looked up)
chain: MTDMNILDLFLKASLLVKLIMLILIGFSIASWAIIIQRTRILNAAAREAEAFEDKFWSGIELSRLYQESQGKRDNLTGSEQIFYSGFKEFVRLHRANSHAPEAVVEGASRAMRISMNRELENLETHIPFLGTVGSISPYIGLFGTVWGIMHAFIALGAVKQATLQMVAPGIAEALIATAIGLFAAIPAVMAYNRLNQRVNKLELNYDNFMEEFTAILHRQAFTVSESNKG
notes: TolQ, E. coli; residues 2-225 built in the structure; also called EcTolQ; TolQA
B3: E. coli TonB with C-terminal TEV site and streptag-II (natural protein)
chain: MTLDLPRRFPWPTLLSVCIHGAVVAGLLYTSVHQVIELPAPAQPISVTMVTPADLEPPQAVQPPPEPVVEPEPEPEPIPEPPKEAPVVIEKPKPKPKPKPKPVKKVQEQPKRDVKPVESRPASPFENTAPARLTSSTATAATSKPVTSVASGPRALSRNQPQYPARAQALRIEGQVKVKFDVTPDGRVDNVQILSAKPANMFEREVKNAMRRWRYEPGKPGSGIVVNILFKINGTTEIQ
notes: TonB, E. coli; only the transmembrane helix (residues 10 to 32) was built, the periplasmic domain is not visible; also called EcTonB; TonBF
B4: E. coli ExbD with C-terminal TEV site and 10his-tag (natural protein)
chain: MAMHLNENLDDNGEMHDINVTPFIDVMLVLLIIFMVAAPLATVDVKVNLPASTSTPQPRPEKPVYLSVKADNSMFIGNDPVTDETMITALNALTEGKKDTTIFFRADKTVDYETLMKVMDTLHQAGYLKIGLVGEETAKAK
notes: ExbD, E. coli; model built from Asp11 through the transmembrane helix (21-42), periplasmic domain not visible; No TEV digestion is described in the purification of TonB-ExbBD, so the tag was probably still on the chain; also called EcExbD; ExbDY

What was measured:
[1] = target: the molecule itself; test: cryo-EM structure; TonB-ExbBD complex, co-expressed and co-purified, in amphipol PMAL-C12 (Tris 30 mM pH8.0 NaCl 170 mM EDTA 1 mM); 300 keV; consensus map 2.8 A and two further classes at 3.2 A
[2] = target: the molecule itself; test: cryo-EM structure; TEV-digested TolATEVQR complex, co-expressed and co-purified, in LMNG (Hepes/NaOH 30 mM pH7.5 NaCl 150 mM EDTA 1 mM LMNG 0.002%), second SEC peak; 300 keV; two 3D classes (TolATEVQR-I 2.94 A, TolATEVQR-II 3.18 A)
E. coli ExbB = target: B1; test: cryo-EM structure; TonB-ExbBD complex, co-expressed and co-purified, in amphipol PMAL-C12 (Tris 30 mM pH8.0 NaCl 170 mM EDTA 1 mM); 300 keV; consensus map 2.8 A and two further classes at 3.2 A; conditions: both partners purified

B1 was tested, and the “stoichiometry N” value [1] was 5.

B2 was tested, and the “stoichiometry N” value [2] was 5.

With B3 the “stoichiometry N” value (E. coli ExbB) was 1 TonB per five ExbB.

With B4 the “stoichiometry N” value [1] was 2.
